According to publication PMC9867570 (Science (New York, N.Y.), 2022):

T1: human NUP93^SOL (human, UniProt Q8N1F7 174-819)
T1 sequence: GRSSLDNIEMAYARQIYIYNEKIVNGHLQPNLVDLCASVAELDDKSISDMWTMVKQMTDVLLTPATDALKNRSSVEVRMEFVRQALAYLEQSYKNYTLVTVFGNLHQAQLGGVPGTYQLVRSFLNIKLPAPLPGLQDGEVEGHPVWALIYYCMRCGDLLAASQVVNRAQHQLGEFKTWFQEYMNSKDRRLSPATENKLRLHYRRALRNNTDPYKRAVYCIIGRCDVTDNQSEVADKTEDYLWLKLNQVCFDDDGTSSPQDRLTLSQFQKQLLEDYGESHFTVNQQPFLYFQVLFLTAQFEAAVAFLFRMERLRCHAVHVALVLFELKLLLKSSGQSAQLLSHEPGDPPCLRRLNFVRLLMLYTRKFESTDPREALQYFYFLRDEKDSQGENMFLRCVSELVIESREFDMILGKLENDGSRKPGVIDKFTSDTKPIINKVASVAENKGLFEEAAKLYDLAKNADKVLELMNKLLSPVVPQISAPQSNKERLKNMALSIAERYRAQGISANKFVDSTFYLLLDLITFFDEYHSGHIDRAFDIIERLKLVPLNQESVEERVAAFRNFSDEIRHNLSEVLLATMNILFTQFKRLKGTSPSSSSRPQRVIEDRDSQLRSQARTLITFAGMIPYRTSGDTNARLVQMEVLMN


Legend:
[1] = molecular target: T1, human NUP93^SOL; experiment: SEC
[2] = molecular target: Chaetomium thermophilum Nup192, full-length (Chaetomium thermophilum, UniProt G0S4T0 1-1756); experiment: ITC
Sequence of Chaetomium thermophilum Nup192, full-length (G0S4T0 whole entry): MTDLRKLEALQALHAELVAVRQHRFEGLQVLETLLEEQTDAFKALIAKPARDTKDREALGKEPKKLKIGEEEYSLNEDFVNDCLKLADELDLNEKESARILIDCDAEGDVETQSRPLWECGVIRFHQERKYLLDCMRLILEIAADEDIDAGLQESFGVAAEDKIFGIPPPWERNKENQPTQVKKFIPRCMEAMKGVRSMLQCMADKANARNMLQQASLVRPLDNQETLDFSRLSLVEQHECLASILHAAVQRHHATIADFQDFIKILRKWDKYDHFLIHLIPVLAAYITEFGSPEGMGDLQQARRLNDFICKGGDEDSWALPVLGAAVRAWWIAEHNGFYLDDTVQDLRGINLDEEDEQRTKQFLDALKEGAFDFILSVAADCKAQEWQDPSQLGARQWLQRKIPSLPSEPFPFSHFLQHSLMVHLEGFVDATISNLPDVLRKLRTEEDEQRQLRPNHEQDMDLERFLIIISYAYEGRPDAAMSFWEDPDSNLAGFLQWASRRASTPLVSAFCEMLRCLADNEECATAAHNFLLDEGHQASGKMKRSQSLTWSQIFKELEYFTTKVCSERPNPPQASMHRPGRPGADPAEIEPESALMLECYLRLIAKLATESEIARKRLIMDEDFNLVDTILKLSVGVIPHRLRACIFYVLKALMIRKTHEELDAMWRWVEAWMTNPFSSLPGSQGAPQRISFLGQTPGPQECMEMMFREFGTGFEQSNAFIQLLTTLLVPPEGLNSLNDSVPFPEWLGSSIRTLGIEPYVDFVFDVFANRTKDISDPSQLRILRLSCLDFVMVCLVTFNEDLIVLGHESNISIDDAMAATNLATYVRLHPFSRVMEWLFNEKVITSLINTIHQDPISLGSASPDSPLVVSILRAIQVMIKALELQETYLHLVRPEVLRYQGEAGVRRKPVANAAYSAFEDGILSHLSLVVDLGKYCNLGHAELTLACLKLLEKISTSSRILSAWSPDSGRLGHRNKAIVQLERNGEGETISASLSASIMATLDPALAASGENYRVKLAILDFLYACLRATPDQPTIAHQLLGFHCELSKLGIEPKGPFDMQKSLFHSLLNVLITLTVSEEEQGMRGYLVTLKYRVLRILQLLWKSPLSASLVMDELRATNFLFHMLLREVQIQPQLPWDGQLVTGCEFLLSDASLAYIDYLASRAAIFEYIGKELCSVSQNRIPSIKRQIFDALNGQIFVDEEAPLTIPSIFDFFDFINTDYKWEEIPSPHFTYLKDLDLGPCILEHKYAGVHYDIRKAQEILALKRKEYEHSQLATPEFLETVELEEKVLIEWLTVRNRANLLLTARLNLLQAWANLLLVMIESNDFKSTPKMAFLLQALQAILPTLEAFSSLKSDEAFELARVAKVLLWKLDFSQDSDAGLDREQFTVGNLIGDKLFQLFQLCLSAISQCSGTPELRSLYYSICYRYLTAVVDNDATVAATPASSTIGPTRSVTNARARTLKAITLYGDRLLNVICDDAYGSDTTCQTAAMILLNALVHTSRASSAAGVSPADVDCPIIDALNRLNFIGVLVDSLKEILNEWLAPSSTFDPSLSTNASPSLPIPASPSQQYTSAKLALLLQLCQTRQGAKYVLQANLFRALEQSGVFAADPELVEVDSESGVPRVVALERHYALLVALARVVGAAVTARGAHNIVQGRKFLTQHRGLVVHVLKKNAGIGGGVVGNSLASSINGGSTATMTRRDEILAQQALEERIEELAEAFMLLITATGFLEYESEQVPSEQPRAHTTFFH

[3] = molecular target: Chaetomium thermophilum Nup188, full-length (Chaetomium thermophilum, UniProt G0SFH5 1-1858); experiment: ITC
Sequence of Chaetomium thermophilum Nup188, full-length (G0SFH5 whole entry): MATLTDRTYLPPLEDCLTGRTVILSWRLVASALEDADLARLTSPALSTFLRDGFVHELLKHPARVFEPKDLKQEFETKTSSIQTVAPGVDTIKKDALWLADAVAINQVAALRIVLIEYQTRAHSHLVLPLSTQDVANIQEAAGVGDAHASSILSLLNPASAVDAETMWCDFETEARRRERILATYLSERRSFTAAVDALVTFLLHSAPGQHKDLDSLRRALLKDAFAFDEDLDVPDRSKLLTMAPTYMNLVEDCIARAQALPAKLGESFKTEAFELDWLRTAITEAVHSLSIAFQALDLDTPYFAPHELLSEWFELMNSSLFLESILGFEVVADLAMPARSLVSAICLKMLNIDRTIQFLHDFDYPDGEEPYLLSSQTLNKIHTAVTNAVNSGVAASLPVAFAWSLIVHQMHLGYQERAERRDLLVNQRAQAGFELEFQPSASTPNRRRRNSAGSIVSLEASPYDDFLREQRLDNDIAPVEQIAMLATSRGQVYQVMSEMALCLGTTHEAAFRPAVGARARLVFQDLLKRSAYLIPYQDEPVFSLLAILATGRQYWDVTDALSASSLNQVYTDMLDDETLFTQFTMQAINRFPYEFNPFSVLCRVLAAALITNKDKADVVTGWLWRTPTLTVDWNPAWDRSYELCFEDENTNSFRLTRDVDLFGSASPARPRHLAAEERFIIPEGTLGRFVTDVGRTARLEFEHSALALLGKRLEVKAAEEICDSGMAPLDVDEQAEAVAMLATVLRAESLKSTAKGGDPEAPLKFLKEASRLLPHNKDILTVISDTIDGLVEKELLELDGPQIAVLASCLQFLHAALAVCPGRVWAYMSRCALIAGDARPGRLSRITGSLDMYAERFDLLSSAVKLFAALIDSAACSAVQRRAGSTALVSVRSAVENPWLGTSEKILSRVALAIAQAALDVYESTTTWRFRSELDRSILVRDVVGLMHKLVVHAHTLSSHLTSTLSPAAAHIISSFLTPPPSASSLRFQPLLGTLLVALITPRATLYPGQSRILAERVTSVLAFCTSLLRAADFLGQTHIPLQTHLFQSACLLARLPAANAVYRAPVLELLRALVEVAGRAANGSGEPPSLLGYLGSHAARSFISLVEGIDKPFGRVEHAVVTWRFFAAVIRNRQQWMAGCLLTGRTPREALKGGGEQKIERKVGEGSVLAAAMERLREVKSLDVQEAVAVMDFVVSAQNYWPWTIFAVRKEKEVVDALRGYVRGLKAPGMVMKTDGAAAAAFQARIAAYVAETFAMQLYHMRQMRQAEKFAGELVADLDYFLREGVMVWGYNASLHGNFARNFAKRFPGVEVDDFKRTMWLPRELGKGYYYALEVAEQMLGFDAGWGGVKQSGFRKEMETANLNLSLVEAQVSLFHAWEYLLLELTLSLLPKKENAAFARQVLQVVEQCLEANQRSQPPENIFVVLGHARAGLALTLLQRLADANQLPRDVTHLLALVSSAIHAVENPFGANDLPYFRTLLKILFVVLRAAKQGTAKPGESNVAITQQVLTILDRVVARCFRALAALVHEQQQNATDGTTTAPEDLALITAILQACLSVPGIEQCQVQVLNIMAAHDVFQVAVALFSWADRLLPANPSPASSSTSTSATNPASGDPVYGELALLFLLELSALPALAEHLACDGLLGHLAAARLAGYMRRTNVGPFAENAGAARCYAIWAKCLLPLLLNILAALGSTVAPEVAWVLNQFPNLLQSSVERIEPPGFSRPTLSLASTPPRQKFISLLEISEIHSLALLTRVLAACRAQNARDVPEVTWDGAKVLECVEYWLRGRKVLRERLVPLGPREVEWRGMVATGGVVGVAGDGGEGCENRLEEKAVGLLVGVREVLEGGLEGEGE

Binder	binding result [1]	Kd [2]	Kd [3]
SUMO-NUP53^N (residues 1–169) (domain or fragment, human, UniProt Q8NFH5 1-169, looked up) MAAFAVEPQGPALGSEPMMLGSPTSPKPGVNAQFLPGFLMGDLPAPVTPQPRSISGPSVGVMEMRSPLLAGGSPPQPVVPAHKDKSGAPPVRSIYDDISSPGLGSTPLTSRRQPNISVMQSPLVGVTSTPGTGQSMFSPASIGQPRKTTLSPAQLDPFYTQGDSLTSED	binds		
Nic96^187–301 (domain or fragment, Chaetomium thermophilum, UniProt G0S024 187-301, looked up) EPGKAHYFLAASGVDPGAAVRDLGALGLQAKTERTAASVGPAAGPSGVSTTGFGTGLGEVDVDTYLSNLQTKTTLSMIADGLERSARDFDAFLEENVTLEWEAQRKRIYQHFGIK		~75 nM	~90 nM
Chaetomium thermophilum Nup145N (natural protein, UniProt G0SAK3 1-993, looked up) MSFGFGSGGFGQNNNSSTFGGFGSTPTTNTGFGSTGTTAFGSTSNTTGGGLFGGGGGGFGSGNTFGSGFGSKPAFGTPATTSSTSLFGSTTTTAGGTGFGSGGFGSTNTSSPFGGGGTSLFGNKTTTGFGSGTSTFGSNTGGGLFGGGSTTTGFGATNNPGIGTNVGDPPGTAVVPFSPTVEKEVNNPSQSNSYQNILFMDAYKKWSAEELRLADYNQGRKTAAPGGTGAFGSSGFGGFGTTSNTGGFGSNTGGGLFGNTQQNTGGFGTTNTTGSAFGSGGGLFGNKPATGGLFGTSSSQPAQSGGLFGSGTASTFGSSNTGTTSTFGSNNNTGGGLFGSNNTSSKPAFSFGTSNTSTPGFGTATTGSGFGTGTTTNTGGGLFGNTAQNTNTGGGLFGNQQQSGSAFGSGTGFGQQNQSTGTSLFGNTQQKPGGLFGSTTTNTSGGLFGSTNTGTSTFGQTPATQNTGGGLFGSKPAGTGGLFGSTATNQPASTGGLFGNLNTNAQTQQPATGGLFGNLGQNNQAKPSLFGTSTTTGGGLFGNTNAQQQTGSLFGTSTAQQQPQTGLGASLFGSSQQQQQQPQTFSTSITDISAYGATTLFSGLPDDKIQNPGPLATPLSGKAKVKSRSILPMYKLSPANASRLVTTPQKRAYGFSFSAYGSPTSPSSSASSTPGAFGQSILSSSINRGLNKSISASNLRRSLNVEDSILQPGAFSANSSMRLLGGPGSHKKLVINKDMRTDLFSPPNKDKQPQEDGTAARKTVTKRVSFDTSNVETPEKTIESSIPATDDSGYLKPDARSTANGTNGANGAKSSPVAAASPPEMEQVKGKELAVVHEEESPAPAQTDKPRGSQIEPGAYWMSPTADDIRAMNRMQRQRVVGFTVGRENVGSVQFKVPVDLSNINLDDLFGTIVILEPRSATVYPNAAKKPPMGKGLNVPALISLEHSWPRGGPTIKGRRLERHIERLKSIPDTTFESYDPETGVWAFSVEHF		~825 nM	
Nic96^R2 (residues 240–301) (peptide, UniProt G0S024 240-301, looked up) GTGLGEVDVDTYLSNLQTKTTLSMIADGLERSARDFDAFLEENVTLEWEAQRKRIYQHFGIK		~75 nM	~90 nM
Nup145N^R1 (residues 616–683) (peptide, UniProt G0SAK3 616-683, looked up) ATPLSGKAKVKSRSILPMYKLSPANASRLVTTPQKRAYGFSFSAYGSPTSPSSSASSTPGAFGQSILS		~1600 nM	
human NUP53^R2 (residues 84–150) (peptide, UniProt Q8NFH5 84-150, looked up) DKSGAPPVRSIYDDISSPGLGSTPLTSRRQPNISVMQSPLVGVTSTPGTGQSMFSPASIGQPRKTTL	binds		
